Here are results for one substance from patent US20230210897A1.

What all share (test): cell-based or functional assay
Assay [1] concerns the target wild-type TGFβRII on untransduced (UT) cord blood-derived NK cells (human) (UniProt P37173).
In assay [2] the target is NKA receptor (truncated TGFβ dominant negative receptor fused to DAP12) (human).
In assay [3] the target is NKCT receptor (truncated TGFβ dominant negative receptor fused to a SynNotch receptor coupled to RELA/p65) (human) (UniProt P37173).
In assay [4] the target is RBDNR receptor (truncated TGFβ dominant negative receptor) (human) (UniProt P37173).

NKA receptor (truncated TGFβ dominant negative receptor fused to DAP12) (human), sequence (chain, as listed by the source limits assumed, form in doubt): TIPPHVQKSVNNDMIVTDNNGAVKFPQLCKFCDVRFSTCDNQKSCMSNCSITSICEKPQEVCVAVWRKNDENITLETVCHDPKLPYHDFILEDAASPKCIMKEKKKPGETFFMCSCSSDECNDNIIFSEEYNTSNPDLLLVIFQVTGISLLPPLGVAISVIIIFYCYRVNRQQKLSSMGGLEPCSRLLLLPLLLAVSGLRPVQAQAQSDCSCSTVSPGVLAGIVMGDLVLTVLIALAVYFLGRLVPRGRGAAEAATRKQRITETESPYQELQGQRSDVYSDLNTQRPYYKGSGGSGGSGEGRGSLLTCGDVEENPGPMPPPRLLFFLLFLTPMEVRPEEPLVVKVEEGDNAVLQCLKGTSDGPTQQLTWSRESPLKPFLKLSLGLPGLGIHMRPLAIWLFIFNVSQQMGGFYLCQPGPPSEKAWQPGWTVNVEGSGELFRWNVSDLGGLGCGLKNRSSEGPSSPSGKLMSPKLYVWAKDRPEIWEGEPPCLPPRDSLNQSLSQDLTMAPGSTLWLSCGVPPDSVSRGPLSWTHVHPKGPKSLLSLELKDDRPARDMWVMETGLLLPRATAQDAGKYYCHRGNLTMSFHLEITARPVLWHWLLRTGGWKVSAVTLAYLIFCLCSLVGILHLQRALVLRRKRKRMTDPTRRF

Substance TGFβ (ligand) yielded a phosphorylated Smad2/3 (Ser465/467) by flow cytometry in untransduced NK cells, 1 hour after 10 ng/mL TGFβ in assay [1] of 73.9%. Besides, the protection from TGFβ-impaired cytolytic activity in vitro (TGFβ concentration at which protection is lost) in assay [2], in assay [3] and in assay [4] was greater than 50 ng/mL in each case.
